Measurements taken from publication PMC4368675, “A Single parS Sequence from the Cluster of Four Sites Closest to oriC Is Necessary and Sufficient for Proper Chromosome Segregation in Pseudomonas aeruginosa”.

Columns and labels:
ParB [1] = biological target: T1, ParB (Pseudomonas aeruginosa, UniProt Q9HT12 1-290); test: EMSA; hierarchy: below parS1/4, equal to parS7, parS9; 10 mM Tris-HCl pH 7.5, 0.5 mM DTT, 50 mM KCl, 1 mM MgCl2, 20 ul, 6 pmol labelled DNA, 18 pmol nonspecific competitor (titrations) or 240 pmol ParB plus 18-180 pmol unlabelled parS2 (dissociation), 15 min 37 C; 5% PAGE in 0.5x TBE; settings: protein: recombinant; tags: His6 (pET28-derived pKLB28); chain copies: 2; label: 5'-Cy3 on strand 1; 5' overhang 4 nt at both ends
T1 sequence: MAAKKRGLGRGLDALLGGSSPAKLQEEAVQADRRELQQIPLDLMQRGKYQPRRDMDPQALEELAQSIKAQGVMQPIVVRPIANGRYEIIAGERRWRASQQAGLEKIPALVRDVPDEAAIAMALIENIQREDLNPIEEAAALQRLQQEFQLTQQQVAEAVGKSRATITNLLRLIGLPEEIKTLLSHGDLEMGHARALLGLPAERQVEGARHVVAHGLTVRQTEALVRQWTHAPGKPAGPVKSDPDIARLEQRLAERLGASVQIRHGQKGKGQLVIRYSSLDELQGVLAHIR

ParB [2] = biological target: T1, ParB; test: EMSA; no significant difference from wt parS5; unlabelled parS2 competitor; 10 mM Tris-HCl pH 7.5, 0.5 mM DTT, 50 mM KCl, 1 mM MgCl2, 20 ul, 6 pmol labelled DNA, 18 pmol nonspecific competitor (titrations) or 240 pmol ParB plus 18-180 pmol unlabelled parS2 (dissociation), 15 min 37 C; 5% PAGE in 0.5x TBE; settings: protein: recombinant; tags: His6 (pET28-derived pKLB28); chain copies: 2; label: 5'-Cy5 on strand 1; 5' overhang 4 nt at both ends
ParB [3] = biological target: T1, ParB; test: EMSA; highest in affinity hierarchy; 10 mM Tris-HCl pH 7.5, 0.5 mM DTT, 50 mM KCl, 1 mM MgCl2, 20 ul, 6 pmol labelled DNA, 18 pmol nonspecific competitor (titrations) or 240 pmol ParB plus 18-180 pmol unlabelled parS2 (dissociation), 15 min 37 C; 5% PAGE in 0.5x TBE; settings: protein: recombinant; tags: His6 (pET28-derived pKLB28); chain copies: 2; label: 5'-Cy3 on strand 1; 5' overhang 4 nt at both ends
ParB [4] = biological target: T1, ParB; test: EMSA; lowest of the wt sites in hierarchy; 10 mM Tris-HCl pH 7.5, 0.5 mM DTT, 50 mM KCl, 1 mM MgCl2, 20 ul, 6 pmol labelled DNA, 18 pmol nonspecific competitor (titrations) or 240 pmol ParB plus 18-180 pmol unlabelled parS2 (dissociation), 15 min 37 C; 5% PAGE in 0.5x TBE; settings: protein: recombinant; tags: His6 (pET28-derived pKLB28); chain copies: 2; label: 5'-Cy3 on strand 1; 5' overhang 4 nt at both ends
ParB [5] = biological target: T1, ParB; test: EMSA; hierarchy: below parS10, above parS5; 10 mM Tris-HCl pH 7.5, 0.5 mM DTT, 50 mM KCl, 1 mM MgCl2, 20 ul, 6 pmol labelled DNA, 18 pmol nonspecific competitor (titrations) or 240 pmol ParB plus 18-180 pmol unlabelled parS2 (dissociation), 15 min 37 C; 5% PAGE in 0.5x TBE; settings: protein: recombinant; tags: His6 (pET28-derived pKLB28); chain copies: 2; label: 5'-Cy3 on strand 1; 5' overhang 4 nt at both ends
ParB [6] = biological target: T1, ParB; test: EMSA; hierarchy: below parS1/4, equal to parS8, parS9; 10 mM Tris-HCl pH 7.5, 0.5 mM DTT, 50 mM KCl, 1 mM MgCl2, 20 ul, 6 pmol labelled DNA, 18 pmol nonspecific competitor (titrations) or 240 pmol ParB plus 18-180 pmol unlabelled parS2 (dissociation), 15 min 37 C; 5% PAGE in 0.5x TBE; settings: protein: recombinant; tags: His6 (pET28-derived pKLB28); chain copies: 2; label: 5'-Cy3 on strand 1; 5' overhang 4 nt at both ends; one mismatch as printed
ParB [7] = biological target: T1, ParB; test: EMSA; hierarchy: below parS7-9, above parS6; 10 mM Tris-HCl pH 7.5, 0.5 mM DTT, 50 mM KCl, 1 mM MgCl2, 20 ul, 6 pmol labelled DNA, 18 pmol nonspecific competitor (titrations) or 240 pmol ParB plus 18-180 pmol unlabelled parS2 (dissociation), 15 min 37 C; 5% PAGE in 0.5x TBE; settings: protein: recombinant; tags: His6 (pET28-derived pKLB28); chain copies: 2; label: 5'-Cy3 on strand 1; 5' overhang 4 nt at both ends
ParB [8] = biological target: T1, ParB; test: EMSA; no specific complex; nonspecific smearing at ParB >5 uM; 10 mM Tris-HCl pH 7.5, 0.5 mM DTT, 50 mM KCl, 1 mM MgCl2, 20 ul, 6 pmol labelled DNA, 18 pmol nonspecific competitor (titrations) or 240 pmol ParB plus 18-180 pmol unlabelled parS2 (dissociation), 15 min 37 C; 5% PAGE in 0.5x TBE; settings: protein: recombinant; tags: His6 (pET28-derived pKLB28); chain copies: 2; label: 5'-Cy5 on strand 1; blunt
ParB [9] = biological target: T1, ParB; test: EMSA; second in hierarchy; competed by unlabelled parS2; 10 mM Tris-HCl pH 7.5, 0.5 mM DTT, 50 mM KCl, 1 mM MgCl2, 20 ul, 6 pmol labelled DNA, 18 pmol nonspecific competitor (titrations) or 240 pmol ParB plus 18-180 pmol unlabelled parS2 (dissociation), 15 min 37 C; 5% PAGE in 0.5x TBE; settings: protein: recombinant; tags: His6 (pET28-derived pKLB28); chain copies: 2; label: 5'-Cy3 on strand 1; 5' overhang 4 nt at both ends
ParB [10] = biological target: T1, ParB; test: EMSA; hierarchy: below parS1/4, equal to parS7, parS8; 10 mM Tris-HCl pH 7.5, 0.5 mM DTT, 50 mM KCl, 1 mM MgCl2, 20 ul, 6 pmol labelled DNA, 18 pmol nonspecific competitor (titrations) or 240 pmol ParB plus 18-180 pmol unlabelled parS2 (dissociation), 15 min 37 C; 5% PAGE in 0.5x TBE; settings: protein: recombinant; tags: His6 (pET28-derived pKLB28); chain copies: 2; label: 5'-Cy3 on strand 1; 5' overhang 4 nt at both ends

B1: parS8 (dsDNA)
DNA 1: AATTCAAGCTTTGTTCCACGAGGCACAG
DNA 2: TCGACTGTGCCTCGTGGAACAAAGCTTG
binding result (ParB [1]): binds

B2: parS5* (dsDNA)
DNA 1: AATTCAAGCTTTATTGTATATGGAGCAG
DNA 2: TCGACTGCTCCATATACAATAAAGCTTG
binding result (ParB [2]): binds

B3: parS2/parS3 (dsDNA)
DNA 1: AATTCAAGCTTTGTTCCACGTGGAACAG
DNA 2: TCGACTGTTCCACGTGGAACAAAGCTTG
binding result (ParB [3]): binds

B4: parS5 (dsDNA)
DNA 1: AATTCAAGCTTTGTTCTACATGGAACAG
DNA 2: TCGACTGTTCCATGTAGAACAAAGCTTG
binding result (ParB [4]): binds

B5: parS6 (dsDNA)
DNA 1: AATTCAAGCTTCGTTCCACGTGGAAGAG
DNA 2: TCGACTCTTCCACGTGGAACGAAGCTTG
binding result (ParB [5]): binds

B6: parS7 (dsDNA)
DNA 1: AATTCAAGCTTTGTTCCACGAGGAACCG
DNA 2: TCGACCGTTCCTCGTGGAACAAAGCTTG
binding result (ParB [6]): binds

B7: parS10 (dsDNA)
DNA 1: AATTCAAGCTTTGTTCCACAGGGAACAG
DNA 2: TCGACTGTTCCCTGTGGAACAAAGCTTG
binding result (ParB [7]): binds

B8: nonspecific control (dsDNA)
DNA 1: GATAGCTCTTTGCCATTAAC
DNA 2: GTTAATGGCAAAGAGCTATC
binding result (ParB [8]): no binding

B9: parS1/parS4 (dsDNA)
DNA 1: AATTCAAGCTTTGTTCCACGTGGAACCG
DNA 2: TCGACGGTTCCACGTGGAACAAAGCTTG
binding result (ParB [9]): binds

B10: parS9 (dsDNA)
DNA 1: AATTCAAGCTTTGTTCCACGAGGAAGAG
DNA 2: TCGACTCTTCCTCGTGGAACAAAGCTTG
binding result (ParB [10]): binds
